Assay in all cases: library pulldown, LC-MS of supernatant; ratio vs GFP-Nb control (0=captured, 1=not captured)
One test addresses T1, BC2T V7C(Abu) (human, also: Abu described as gamma-amino butyric acid).
T1 construct: position 7 library, row C(Abu) / C*
T1 peptide: Ac-PDRKAA[GABA]SHWQQ-NH2
The procedure, abridged:
(§1)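 Unbound peptide left in supernatant after 1 h pulldown in PBS/0.01% CHAPS measured by reversed-phase LC-MS (8–30% eluent B gradient, 20 min).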

In another test the target is T2, BC2T D2Y (human).
T2 construct: position 2 library, row Y
T2 peptide: Ac-PYRKAAVSHWQQ-NH2
The procedure, abridged:
as §1

Another test deals with T3, BC2T R3S (human).
T3 construct: position 3 library (BC2TR3X), row S
T3 peptide: Ac-PDSKAAVSHWQQ-NH2
The procedure, abridged:
as §1

For the next test, the target named is T4, BC2T D2P (human).
T4 construct: position 2 library, row P
T4 peptide: Ac-PPRKAAVSHWQQ-NH2
The procedure, abridged:
as §1

The next test deals with T5, BC2T P1E (human).
T5 construct: position 1 library, row E
T5 peptide: Ac-EDRKAAVSHWQQ-NH2
The procedure, abridged:
as §1

For the next test, the target named is T6, BC2T V7H (human).
T6 construct: position 7 library, row H
T6 peptide: Ac-PDRKAAHSHWQQ-NH2
The procedure, abridged:
as §1

The target of a further test is T7, BC2T A5W (human).
T7 construct: position 5 library, row W
T7 peptide: Ac-PDRKWAVSHWQQ-NH2
The method in brief: as §1

For another test, the target named is T8, BC2T P1K (human).
T8 construct: position 1 library, row K
T8 peptide: Ac-KDRKAAVSHWQQ-NH2
The method in brief:
as §1

The target of a further test is T9, BC2T V7S (human).
T9 construct: position 7 library, row S
T9 peptide: Ac-PDRKAASSHWQQ-NH2
The method in brief:
as §1

The target of another test is T10, BC2T K4S (human).
T10 construct: position 4 library, row S
T10 peptide: Ac-PDRSAAVSHWQQ-NH2
The method in brief:
as §1

A further test concerns the target T11, BC2T A6K (human).
T11 construct: position 6 library (BC2TA6X), row K
T11 peptide: Ac-PDRKAKVSHWQQ-NH2
The procedure, abridged:
as §1

The target in the next test is T12, BC2T P1C(Abu) (human, SMILES …).
T12 construct: position 1 library, row C(Abu) / C*
T12 peptide: Ac-[GABA]DRKAAVSHWQQ-NH2
The method in brief:
as §1

The target of another test is T13, BC2T P1T (human).
T13 construct: position 1 library, row T
T13 peptide: Ac-TDRKAAVSHWQQ-NH2
The method in brief:
as §1

In another test the target is T14, BC2T A6H (human).
T14 construct: position 6 library (BC2TA6X), row H
T14 peptide: Ac-PDRKAHVSHWQQ-NH2
The procedure, abridged:
as §1

In a further test the target is T15, BC2T R3K (human).
T15 construct: position 3 library (BC2TR3X), row K
T15 peptide: Ac-PDKKAAVSHWQQ-NH2
The procedure, abridged: as §1

For another test, the target named is T16, BC2T R3Y (human).
T16 construct: position 3 library (BC2TR3X), row Y
T16 peptide: Ac-PDYKAAVSHWQQ-NH2
The procedure, abridged:
as §1

The next test addresses T17, BC2T A6C(Abu) (human, SMILES …).
T17 construct: position 6 library (BC2TA6X), row C(Abu) / C*
T17 peptide: Ac-PDRKA[GABA]VSHWQQ-NH2
The method in brief: as §1

The target in another test is T18, BC2T V7D (human).
T18 construct: position 7 library, row D
T18 peptide: Ac-PDRKAADSHWQQ-NH2
The method in brief:
as §1

In the next test the target is T19, BC2T K4N (human).
T19 construct: position 4 library, row N
T19 peptide: Ac-PDRNAAVSHWQQ-NH2
The procedure, abridged:
as §1

In another test the target is T20, BC2T R3E (human).
T20 construct: position 3 library (BC2TR3X), row E
T20 peptide: Ac-PDEKAAVSHWQQ-NH2
The procedure, abridged: as §1

Substitutions are numbered along the chain they refer to. Square brackets hold non-standard residues; d marks the D form. GABA = NCCCC(=O)O

B1: BC2 nanobody (BC2-Nb) (VHH)
VHH: QVQLVESGGGLVQPGGSLTLSCTASGFTLDHYDIGWFRQAPGKEREGVSCINNSDDDTYYADSVKGRFTIFMDNAKDTVYLQMNSLKPEDTAIYYCAEARGCKRGRYEYDFWGQGTQVTVSS
notes: immobilised on agarose/sepharose beads in this assay; also called BC2 nanotrap (immobilised form); not shown: C-terminal 6xHis-tag added by pHEN6 vector
For the molecule B1, the ratio in the test with BC2T V7C(Abu) worked out at 0.2; with BC2T D2Y it was 0.1; with BC2T R3S it was 0.6; with BC2T D2P it was 0.6; in the test with BC2T P1E, 0.9; in the test with BC2T V7H it was 0.3. Further, the ratio with BC2T A5W came out at 0; with BC2T P1K it was 0.3; in the test with BC2T V7S, 0.3; with BC2T K4S, 0.3; with BC2T A6K, 1; with BC2T P1C(Abu), 0.1. Also, the ratio turned out to be 0.5 with BC2T P1T; 1.1 with BC2T A6H; 0.2 in the test with BC2T R3K; 0.7 with BC2T R3Y; 0.1 with BC2T A6C(Abu); 0.5 in the test with BC2T V7D. Moreover, the values for the ratio in the test with BC2T K4N and with BC2T R3E were 0.5 and 1, respectively.

B2: BC2-NbR106S (VHH)
VHH: B1 VHH with R106S
notes: immobilised on beads in this assay; not shown: C-terminal 6xHis-tag added by pHEN6 vector
Regarding B2, the ratio in the test with BC2T V7C(Abu) came to 0.5; in the test with BC2T D2Y, 0.2; with BC2T R3S it was 0.9; with BC2T D2P it was 0.8; with BC2T P1E, 0.8; with BC2T V7H, 0.4. In addition, the ratio came to 0.1 in the test with BC2T A5W; 0.5 with BC2T P1K; 0.4 in the test with BC2T V7S; 0.7 with BC2T K4S; 0.8 with BC2T A6K; 0.3 with BC2T P1C(Abu). For the same molecule, the ratio with BC2T P1T came to 0.7; with BC2T A6H, 0.9; with BC2T R3K, 0.5; in the test with BC2T R3Y it was 1; in the test with BC2T A6C(Abu), 0.3; in the test with BC2T V7D, 0.9. The ratio with BC2T K4N amounted to 0.9; with BC2T R3E, 1.

These data come from patent US20170137467A1 (CHROMOTEK, published 2017).
